What was measured:
[1] = biological target: the molecule itself; experiment: SEC-SAXS; BioSEC-3 column, 15 °C, 0.3 mL/min, 20 mM Na-HEPES pH 7.3, 55 mM KOAc, 10 mM NaCl, 1 mM TCEP; purification tags cleaved off; SWING beamline, SOLEIL
[2] = biological target: the molecule itself; experiment: SEC-MALS; SEC-MALLS, BioSEC-3 column, 25 °C, 0.4 mL/min, 20 mM Na-phosphate pH 7.0, 100 mM NaCl, 2 mM 2-mercaptoethanol; His6-tag kept

Protein | stoichiometry N [1] | stoichiometry N [2]
ADAR1-dsRBD3 dsRBD3-long construct (residues 688-817) (domain or fragment, human, UniProt P55265 688-817, looked up, human ADAR1, third dsRBD with flanking regions, residues 688-817 (Uniprot entry P55265); Modified pET28a with TEV site; source: E. coli BL21(DE3) Codon-plus (RIL), purified (Ni-NTA, TEV cleavage, SEC); not shown: His6, N-terminal, cleaved) MASDNQPEGMISESLDNLESMMPNKVRKIGELVRYLNTNPVGGLLEYARSHGFAAEFKLVDQSGPPHEPKFVYQAKVGGRWFPAVCAHSKKQGKQEAADAALRVLIGENEKAERMGFTEVTPVTGASLRR | 2 | 
ADAR1-dsRBD3 dsRBD3-short construct (residues 716-797) (domain or fragment, human, UniProt P55265 716-797, looked up, human ADAR1, folded part of the third dsRBD, residues 716-797 (Uniprot entry P55265); Modified pET28a with TEV site; also called dsRBD-short; ADAR1-dsRBD3 (crystal structures); source: E. coli BL21(DE3) Codon-plus (RIL), purified (Ni-NTA, TEV cleavage, SEC); not shown: His6, N-terminal, cleaved) IGELVRYLNTNPVGGLLEYARSHGFAAEFKLVDQSGPPHEPKFVYQAKVGGRWFPAVCAHSKKQGKQEAADAALRVLIGENE | 2 | 
ADAR1-dsRBD3 dsRBD3-mid construct (residues 708-801), tag cleaved (domain or fragment, human, UniProt P55265 708-801, looked up, human ADAR1, third dsRBD, residues 708-801 (Uniprot entry P55265); Modified pET28a with TEV site; also called dsRBD-mid; source: E. coli BL21(DE3) Codon-plus (RIL), purified (Ni-NTA, TEV cleavage, SEC); not shown: His6, N-terminal, cleaved) MMPNKVRKIGELVRYLNTNPVGGLLEYARSHGFAAEFKLVDQSGPPHEPKFVYQAKVGGRWFPAVCAHSKKQGKQEAADAALRVLIGENEKAER | 2 | 
ADAR1-dsRBD3 (residues 708-801) with uncleavable His6-tag, wild type (domain or fragment, human, UniProt P55265 708-801, looked up, human ADAR1, third dsRBD, residues 708-801 (Uniprot entry P55265); pET28a between NdeI and XhoI; also called wild-type ADAR1-dsRBD3; source: E. coli BL21(DE3) Codon-plus (RIL), purified (Ni-NTA, SEC); not shown: His6, N-terminal, kept) MMPNKVRKIGELVRYLNTNPVGGLLEYARSHGFAAEFKLVDQSGPPHEPKFVYQAKVGGRWFPAVCAHSKKQGKQEAADAALRVLIGENEKAER |  | 2

— paper PMC11582362 (Nature Communications, 2023)
